Data from patent CN117999282A (GAMMADELTA THERAPEUTICS LTD, dated 2024).

How the values were obtained:
[1] = molecular target: human Vδ1 γδ T cell receptor on cells (skin-, blood- or tumour-derived Vδ1 γδ T cells) (human); test: cell-based or functional assay
recombinant human PD-1 = molecular target: T1, recombinant human PD-1 (human, UniProt Q15116 25-167); test: SPR, PD-1 fixed on carboxymethyl dextran chip, bispecific 100nM, then Vδ1 heterodimer 100nM
T1 construct: also called 重组PD-1; 人PD-1

recombinant human OX40 = molecular target: T2, recombinant human OX40 (human, UniProt P43489 29-216); test: SPR, OX40 fixed on carboxymethyl dextran chip, bispecific 100nM, then Vδ1 heterodimer 100nM
T2 construct: also called 重组OX40; 人OX40
T2 sequence (looked up): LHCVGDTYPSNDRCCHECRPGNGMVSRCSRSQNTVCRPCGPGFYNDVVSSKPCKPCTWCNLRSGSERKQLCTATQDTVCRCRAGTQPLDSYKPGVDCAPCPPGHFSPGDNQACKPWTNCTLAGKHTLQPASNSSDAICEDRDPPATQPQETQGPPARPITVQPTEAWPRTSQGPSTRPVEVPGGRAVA

T1 sequence (Q15116 25-167 limits assumed): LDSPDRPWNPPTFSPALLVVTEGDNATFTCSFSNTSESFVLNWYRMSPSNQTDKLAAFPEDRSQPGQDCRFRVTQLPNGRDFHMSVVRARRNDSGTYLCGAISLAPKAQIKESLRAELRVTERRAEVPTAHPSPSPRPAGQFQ
Sequence of human Vδ1 γδ T cell receptor on cells (skin-, blood- or tumour-derived Vδ1 γδ T cells) (human) (A0A1B0GX56 22-115, stated change not applied): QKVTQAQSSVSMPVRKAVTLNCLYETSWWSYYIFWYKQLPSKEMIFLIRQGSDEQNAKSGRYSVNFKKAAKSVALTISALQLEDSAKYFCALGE

B1: ADT1-4 (parent antibody) (antibody, IgG1, V domains shown)
VH: QVQLQQSGPGLVKPSQTLSLTCAISGDSVSSKSAAWNWIRQSPSRGLEWLGRTYYRSKWSTDYAASVKSRITINPDTSKNQLSLQLNSVTPEDTAVYYCARTWSGYVDVWGQGTLVTVSS
VL: DIQMTQSPPALSASVGDRVTITCRASQDINDWLAWYQHKPGKAPKLLIYDASSLESGVPSRFSGSGSGTEFTLTISSLQPDDFATYYCQQSYSTPQVTFGQGTRLEIK
TCR下调 IC50 (soluble assay) [1]: 0.0383 µM

B2: 抗Vδ1×PD-1双特异性抗体 (ADT1-4-2×帕博利珠单抗) (bispecific antibody, human IgG1, kappa)
chain 1: EIVLTQSPATLSLSPGERATLSCRASKGVSTSGYSYLHWYQQKPGQAPRLLIYLASYLESGVPARFSGSGSGTDFTLTISSLEPEDFAVYYCQHSRDLPLTFGGGTKVEIKRTVAAPSVFIFPPSDEQLKSGTASVVCLLNNFYPREAKVQWKVDNALQSGNSQESVTEQDSKDSTYSLSSTLTLSKADYEKHKVYACEVTHQGLSSPVTKSFNRGEC
chain 2: not shown
notes: also called 抗Vδ1×抗PD-1
binding result (recombinant human PD-1): binds

B3: 抗Vδ1×OX40双特异性抗体 (ADT1-4-2×珀伽利珠单抗) (bispecific antibody, human IgG1, kappa)
chain 1: DIQMTQSPPALSASVGDRVTITCRASQDINDWLAWYQHKPGKAPKLLIYDASSLESGVPLRFSGSGSGTEFTLTISSLQPDDFATYYCQQKYSAPQVTFGQGTRLEIKRTVAAPSVFIFPPSDEQLKSGTASVVCLLNNFYPREAKVQWKVDNALQSGNSQESVTEQDSKDSTYSLSSTLTLSKADYEKHKVYACEVTHQGLSSPVTKSFNRGEC
chain 2: not shown
notes: also called 抗Vδ1×抗OX40
binding result (recombinant human OX40): binds
